Experimental findings from patent US20190367618A1 (SHANGHAI JUNSHI BIOSCIENCES, published 2019) are described below.

Numbering of substitutions follows the chain as printed.

One test addresses T1, hPD-L1-his (human, UniProt Q9NZQ7 19-238, limits assumed).
T1 construct: also called human PD-L1; not shown: his tag
The test is described as follows: ELISA, hPD-L1-his coated, anti-human IgG (Fc-specific)-peroxidase detection. (In general: An ELISA detects its analyte on a solid surface through an enzyme-linked reagent.)

The next test addresses T2, PD-L1 on 293F cells (UniProt Q9NZQ7 19-290, limits assumed).
T2 construct: whole, on cells
Nature of the test: flow cytometry on 293F cells expressing PD-L1. How it is done:
Antibody (humanized antibodies 30, 38) dilutions at different concentrations was added in a volume of 50 μl, mixed and incubated at room temperature for 30 min. The cells were washed twice with FACS buffer, contacted with 100 μl of goat anti-human IgG-PE antibody, and incubated for 30 min in the dark. FACS was performed after washing twice with FACS buffer.

The target of test [1] is T3, human PD-L1 (ELISA coat, construct not stated) (human, UniProt Q9NZQ7 19-238, limits assumed).
T3 construct: also called human PD-L1 protein
T3 sequence (Q9NZQ7 19-238 limits assumed): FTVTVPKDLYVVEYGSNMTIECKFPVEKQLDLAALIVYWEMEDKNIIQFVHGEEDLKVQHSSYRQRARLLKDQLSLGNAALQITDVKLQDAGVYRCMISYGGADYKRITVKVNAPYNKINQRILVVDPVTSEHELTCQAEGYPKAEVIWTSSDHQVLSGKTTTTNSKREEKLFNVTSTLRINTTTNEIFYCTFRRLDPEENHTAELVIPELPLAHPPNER
The test is described as follows: ELISA, PD-L1 coated. How it is done: A 96-well microtiter plate was plated, coated with PD-L1, and incubated at 37° C. for 60 minutes. The solution in the wells was then discarded, and the wells were washed 3 times with washing buffer, and blocked with PBS containing 2% BSA for 60 minutes. After washed 3 times with washing buffer, each well was added with 100 μl of biotin-labeled IgG4 antibody, incubated at 37° C. for 30 minutes, washed 3 times with washing buffer, then added with humanized antibodies of different dilutions, and incubated at 37° C. for 1 hour. After washed 3 times with washing buffer, the cells were incubated with HPR-labeled mouse anti-human IgG (H+L) (diluted 1:10000 with washing buffer) at room temperature for 1 hour, washed 3 times with washing buffer, and then added with 100 μl of TMB substrate for development. After reacting for 30 minutes at room temperature, the reaction was terminated with 100 μl of 2 M hydrochloric acid solution and the absorbance was read at 450 nm.

The next test concerns the target PD-L1 on CHO cells (human, UniProt Q9NZQ7 19-290). Nature of the test: cell-based or functional assay.
Test [2] has as its target T4, human PD-L1 extracellular domain protein (human, UniProt Q9NZQ7 19-238, biotin (biotin-NHS, molar ratio 1:10) where used as biotin-labeled human PD-L1 (Examples 2, 3, 5, 12, 17)).
T4 construct: extracellular domain; About 75 kDa on SDS-PAGE; also called human PD-L1 recombinant protein; biotin-labeled human PD-L1
The test is described as follows: flow cytometry, inhibition of biotin-PD-L1 (1 µg/ml) binding to PD-1 on 293F cells.

Test [3] deals with T4, human PD-L1 extracellular domain protein. The test is described as follows: ForteBio (BLI). (In general: BLI is a label-free optical method that tracks binding on a fibre tip over time.)

T4 sequence (Q9NZQ7 19-238): as the sequence (Q9NZQ7 19-238 limits assumed) above
T2 sequence (Q9NZQ7 19-290 limits assumed): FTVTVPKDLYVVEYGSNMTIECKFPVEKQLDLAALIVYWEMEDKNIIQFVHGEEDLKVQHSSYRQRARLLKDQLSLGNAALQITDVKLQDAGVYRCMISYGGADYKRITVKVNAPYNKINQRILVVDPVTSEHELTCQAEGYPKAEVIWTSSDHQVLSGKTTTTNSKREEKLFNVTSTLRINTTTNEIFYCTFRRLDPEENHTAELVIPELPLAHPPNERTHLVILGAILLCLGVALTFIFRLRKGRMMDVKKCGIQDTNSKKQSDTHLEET
Chain of PD-L1 on CHO cells (Q9NZQ7 19-290): as the sequence (Q9NZQ7 19-290 limits assumed) above
T1 sequence (Q9NZQ7 19-238 limits assumed): as the sequence (Q9NZQ7 19-238 limits assumed) above

Regarding durvaluma (antibody), in the test with hPD-L1-his, the EC50 worked out at 0.0216 µg/mL.

B1: humanized antibody 38 (antibody, V domains shown)
VH: QGQLQESGPSLVKPSQTLSLTCTVSGDSITRGYWNWIRKPPGKGLEYIGYISYTGSTYSNLSLKSRVTISRDTSKNQYYLKLSSVTAADTAVYYCATSTGWLDPVDYWGQGTLVTVSS
VL: DIQMTQSPSSLSASVGDRVTITCRASQNVDTSVAWFQQKPGKAPKALIYSASFRYSGVPSRFSGSGSGTDFTLTISSLQPEDFATYFCQQYYGYPFTFGQGTKLEIK
Take B1: the results for the EC50 (with PD-L1 on 293F cells; in test [1]) were 0.348 µg/mL and 0.000837 µg/mL, respectively. The “EC50, Jurkat fluorescein (PD-1/NFAT-luciferase reporter) analysis” value with PD-L1 on CHO cells stood at 0.082 µg/mL. Also, in test [2], the IC50 was found to be 0.889 µg/mL.

B2: humanized antibody 30 (antibody, V domains shown)
VH: B1 VH with P40H
VL: DIVMTQSPDSLAVSLGERATINCKASQNVDTSVAWFQQKPGQPPKALIYSASFRYSGVPDRFSGSGSGTDFTLTISSLQAEDVAVYFCQQYYGYPFTFGQGTKLEIK
B2: the EC50 came to 0.287 µg/mL in the test with PD-L1 on 293F cells, 0.000558 µg/mL in test [1] and 0.0111 µg/mL in the test with hPD-L1-his. Also, in the test with PD-L1 on CHO cells, the “EC50, Jurkat fluorescein (PD-1/NFAT-luciferase reporter) analysis” value was determined as 0.0782 µg/mL. In addition, in test [2], the IC50 was 0.647 µg/mL.

B3: clone 21 (murine antibody 21) (antibody, V domains shown)
VH: EGQLQESGPSLVKPSQTLSLTCSVTGDSITRGYWNWIRKFPGNKFEYMGYISYTGSTYSNLSLKSRISITRDTSKNHYYLRLNSVTTEDTATYYCATSTGWLDPVDYWGQGTLVTVSA
VL: DIVMTQSRKFMSTSVGDRASVTCKASQNVDTSVAWFQQKPGQSPKALIYSASFRYSGVPDRFTGSGSGTDFTLTISNVQSEDLAEYFCQQYYGYPFTFGSGTKLEIK
notes: Murine hybridoma antibody
Regarding B3, the Kd in test [3] was 0.9 nM.

B4: clone 16 (murine antibody 16) (antibody, V domains shown)
VH: EVQLQQSGPELVKPGASVKMSCKASGYTFTNYVIHWVKQTPGQGLEWIGYINPNIDGGSYNEKFNGKAKMTSDKSSSTVHMELRSLTYEDFAVYYCAKPRGSWGQGTLVTVSA
VL: DIVLTQSPASLAVSLGQRATISCRASESVEFYGTSLMQWYQQKPGQPPKLLIYAASNVDSGVPARFSGSGSGTDFSLNIHPVEEDDIAMYFCQQGRHVPYTFGGGTKLEIK
notes: Murine hybridoma antibody
For B4, the Kd in test [3] turned out to be 0.5 nM.

As a reminder, the EC50 is the concentration that produces a half-maximal response. The low end stands for higher potency in that assay, the high end for lower potency in that assay. The IC50 is the concentration needed to halve the response being measured. Usually Kd stands for the constant that tells how readily two partners part at equilibrium.
